Changes are numbered by the printed parent chain. Names may count otherwise. Numbered stars: 1 amine (or outer) side, 2 acyl side, 3 side chain; on linkers, the order of the positions; unused ones are H or OH. Peptide text beside a SMILES is read from it. * marks the point of attachment. pNA = O=[N+]([O-])c1ccc(N*)cc1; Suc = O=C(CCC(=O)[*:2])[*:1]

The source of these data is patent EP0308499B1, “SUBSTRATE ASSISTED CATALYSIS” (GENENCOR INTERNATIONAL, INC., priority 1987, dated 1988).

Series [1] deals with β-lactamase, Serine-70 substituted with cysteine (thiol-containing β-lactamase) (Escherichia coli, UniProt P62593, S68C). The settings on record: cited from earlier work; for kcat: relative to that of a wild type enzyme.
Series [2] has as its target T1, B. amyloliquefaciens subtilisin mutant Cys-24/Ala-64 (Ser-24→Cys/His-64→Ala) (Bacillus amyloliquefaciens, UniProt P00782, H171A/S131C).
T1 construct: The His-64→Ala mutation caused a severe reduction in secretion of mature subtilisin; made in house; host or cells: Bacillus subtilis BG2036, co-cultured with helper cells carrying active Ala-48→Glu subtilisin
T1 sequence (P00782 108-382 S131C/H171A): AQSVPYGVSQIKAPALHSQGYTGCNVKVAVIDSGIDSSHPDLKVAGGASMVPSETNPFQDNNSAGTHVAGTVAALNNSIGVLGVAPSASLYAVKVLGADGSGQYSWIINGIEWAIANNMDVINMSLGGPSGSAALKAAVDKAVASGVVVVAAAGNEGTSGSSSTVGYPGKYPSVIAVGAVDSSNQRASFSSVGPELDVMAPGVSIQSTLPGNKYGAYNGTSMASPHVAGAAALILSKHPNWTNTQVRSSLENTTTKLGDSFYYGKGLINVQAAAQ
Kind of series: Kinetic analysis of hydrolysis of p-nitroanilide peptide substrates (release of ρ-nitroaniline, Eadie-Hofstee plot). The format is biochemical. The protocol:
(§1) The kinetic parameters for Cys-24 and Cys-24/Ala-64 were determined against the substrates N-succinyl-L-Phe-L-Ala-L-[X)-L-Phe-ρ-nitroanilide (abbreviated sFAXF-pNA), where X (P2 position) was Ala, Gln, or His (Table I). […] By comparison, the His-64→Ala mutation causes a drop of ∿10⁶ fold in kcat/Km against the Ala and Gln P2 substrates. Almost all of the decrease in catalytic efficiency is caused by a decreased kcat term (up to 10⁶ times), although smaller but significant increases appear in Km. […] Although the proportion of functional active sites in Cys-24/Ala-64 enzyme preparations could not be determined directly by such active site labeling, enzyme that was purified by additional native gel electrophoresis (Example 6) had identical kinetic parameters to Cys-24/Ala-64 described in Table V.

The target in series [3] is T1, B. amyloliquefaciens subtilisin mutant Cys-24/Ala-64 (Ser-24→Cys/His-64→Ala). Kind of series: Inhibition by the active site reagent PMSF. Format: biochemical. The conditions noted are these: concentration not given. The protocol:
as §1
Several lines of evidence indicate that the activity we attribute to the Cys-24/Ala-64 enzyme is not the result of any other protease contamination. Firstly, the extreme substrate preference for His at the P2 position is unlike wild-type subtilisin or any known Bacillus protease. […] Finally, the kinetic values determined for Cys-24/Ala-64 that was additionally purified by native gel electrophoresis (Example 6) are essentially the same as these reported in Table V.

Substrate in series [4]: C[C@H](NC(=O)[C@H](Cc1ccccc1)NC(=O)CCC(=O)O)C(=O)N[C@@H](CCC(N)=O)C(=O)N[C@@H](Cc1ccccc1)C(=O)Nc1ccc([N+](=O)[O-])cc1
Kind of series: Kinetic analysis of hydrolysis of p-nitroanilide peptide substrates (release of ρ-nitroaniline, Eadie-Hofstee plot). The format is biochemical, B. amyloliquefaciens. The conditions noted are these: other: 0.10 M Tris-HCl (pH 8.6), 10 mM DTT, 25±0.1°C, 25.0 °C. Here is the method: as §1

Substrate in series [5]: C[C@H](NC(=O)[C@H](C)NC(=O)[C@H](Cc1ccccc1)NC(=O)CCC(=O)O)C(=O)N[C@@H](Cc1ccccc1)C(=O)Nc1ccc([N+](=O)[O-])cc1
Described as above. The format is biochemical, B. amyloliquefaciens. The settings on record: other: 0.10 M Tris-HCl (pH 8.6), 10 mM DTT, 25±0.1°C, 25.0 °C. The protocol: as §1

Substrate in series [6]: C[C@H](NC(=O)[C@H](Cc1ccccc1)NC(=O)CCC(=O)O)C(=O)N[C@@H](Cc1c[nH]cn1)C(=O)N[C@@H](Cc1ccccc1)C(=O)Nc1ccc([N+](=O)[O-])cc1
The series is described as above. The format is biochemical, B. amyloliquefaciens. The conditions noted are these: other: 0.10 M Tris-HCl (pH 8.6), 10 mM DTT, 25±0.1°C, 25.0 °C. Here is the method:
as §1

The kcat is the number of substrate molecules converted per active site and unit of time at saturation. As for `CC1(C)S[C@@H]2[C@H](NC(=O)Cc3ccccc3)C(=O)N2[C@H]1C(=O)O` [benzyl penicillin], the kcat in series [1] was 1-2%.

Regarding `C[C@H](NC(=O)[C@H](Cc1ccccc1)NC(=O)CCC(=O)O)C(=O)N[C@@H](Cc1c[nH]cn1)C(=O)N[C@@H](Cc1ccccc1)C(=O)Nc1ccc([N+](=O)[O-])cc1` [His, N-succinyl-L-Phe-L-Ala-L-X-L-Phe-ρ-nitroanilide] (Suc-FAHF-pNA), in series [2] (kcat/Km compared with wild-type subtilisin), the “catalytic efficiency below wild-type” value is listed as 5,000 fold. In series [2] (pH 8.6, Table V data), the “kcat of the His P2 substrate larger than that of the Ala P2 substrate by a factor” value is given as 2,000 and the “kcat of the His P2 substrate larger than that of the Gln P2 substrate by a factor” value worked out at 500.

As to `O=S(=O)(F)Cc1ccccc1` [PMSF, phenylmethylsulfonyl-fluoride], the “inhibition by PMSF” value in series [3] is “completely resistant to inhibition”.

By Km is commonly meant the substrate concentration at which the rate is half of its maximum. For `O=C(Cc1cccs1)N[C@@H]1C(=O)N2C(C(=O)O)=C(/C=C/c3ccc([N+](=O)[O-])cc3[N+](=O)[O-])CS[C@H]12` [nitrocefin], the Km entry in series [1] (relative to that of the wild type) is reported as “greater than 10 fold”.

In the case of `CC1(C)S[C@@H]2[C@H](NC(=O)[C@H](N)c3ccccc3)C(=O)N2[C@H]1C(=O)O` [ampicillin], the kcat in series [1] is 1-2%.

B1: B. amyloliquefaciens subtilisin, recombinant Cys-24 (Ser-24→Cys; kinetically essentially identical to wild-type) (Bacillus amyloliquefaciens; S131C) (protein)
chain: T1 sequence (P00782 108-382 S131C/H171A) with A64H
notes: Maturation of the primary subtilisin gene product (preprosubtilisin) to subtilisin in B. substilis is believed to be mediated by autoproteolysis; made in house
As to B1, in series [4], the Km was determined as 39 µM, the kcat worked out at 7.0 s⁻¹ and the kcat/Km was 1.8 x 10^5 s^-1M^-1. In series [5], the Km worked out at 10 µM, the kcat was 8.1 s⁻¹ and the kcat/Km is 8.0 x 10^5 s^-1M^-1. Besides, in series [6], the Km was 23 µM, the catalytic constant (kcat) was determined as 4.6 s⁻¹ and the kcat/Km is on record as 2.0 x 10^5 s^-1M^-1.

B2: B. amyloliquefaciens subtilisin mutant Cys-24/Ala-64 (Ser-24→Cys/His-64→Ala) (Bacillus amyloliquefaciens; H171A/S131C) (protein)
chain: T1 sequence (P00782 108-382 S131C/H171A)
For the molecule B2, in series [4] (in the presence of PMSF), the Km amounted to 150 µM, the turnover number (kcat) amounted to 3e-05 s⁻¹ and the kcat/Km came to 0.20 s^-1M^-1. Moreover, in series [5] (in the presence of PMSF), the Km came out at 32 µM, the kcat is 8.1e-06 s⁻¹ and the kcat/Km is 0.25 s^-1M^-1. Also, in series [6] (in the presence of PMSF), the Km was determined as 380 µM, the kcat was 0.016 s⁻¹ and the kcat/Km amounted to 42 s^-1M^-1.
